Assay results reported in patent US9618524B2, “Method, composition, isolation and identification of a plaque particle and related biomarker” (Plaxgen Inc., priority 2012, dated 2017).

Assays:
Assay in all cases: Mass spectroscopy proteomics, semi-quantitative binding affinity of serum proteins (plaqueproteome, Table 2)
Settings in all cases: higher number = stronger affinity
[1] = target: T1, alpha-synuclein plaque particles (Homo sapiens, UniProt P37840)
T1 construct: 140 amino acids polypeptide
Method in brief: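 AD-subject plasma or serum (800 μL of 50%) mixed with 30 μg preformed alpha-synuclein aggregates for 1 h at 37 °C; Thioflavin S-positive particles isolated by flow sorting. After reduction, acrylamide alkylation and overnight tryptic digestion, serum proteins identified by MS/MS with Sequest and Scaffold.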

[2] = test system: Tau plaque particles; design: species or system human
Method in brief: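 Synthetic Tau-74 and Tau-275 peptides (1 mg/mL PBS, 37° C, 2 h) aggregated; 30 μg aggregates incubated with 50% serum/plasma 1 h at 37° C, stained with Thioflavin S, and plaque particles sorted by flow cytometry. Bound proteins trypsin-digested and identified by MS/MS against human UniProt.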

[3] = target: T2, Abeta-42 plaque particles (Homo sapiens, UniProt P05067)
T2 construct: Abeta 1-42
Method in brief: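 AD patient serum or plasma (50% in PBS) was incubated with Abeta-42 aggregates (30 μg) for 1 h at 37 °C, then stained with Thioflavin S for 30 min. Labeled particles were FACS-sorted, trypsin/Lys-C digested overnight and analyzed by MS/MS. Sequest searched human UniProt; Scaffold/Protein Prophet validated the identifications.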

[4] = test system: Low density cholesterol (Chl small) plaque particles; design: species or system human
Method in brief: (§1)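 Serum or plasma from atherosclerotic subjects, as 50% serum, was incubated with 30 μg cholesterol aggregates for 1 h at 37 °C. High- and low-density particles were then flow-sorted, trypsin-digested and analysed by MS/MS. Proteins were identified by Sequest search against human UniProt and validated with Protein Prophet.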

[5] = test system: High Density cholesterol (Chl Large) plaque particles; design: species or system human
Method in brief: as §1

B1: Serpin B12 (protein)
chain: MDSLVTANTKFCFDLFQEIGKDDRHKNIFFSPLSLSAALGMVRLGARSDSAHQIDEVLHFNEFSQNESKEPDPCLKSNKQKAGSLNNESGLVSCYFGQLLSKLDRIKTDYTLSIANRLYGEQEFPICQEYLDGVIQFYHTTIESVDFQKNPEKSRQEINFWVECQSQGKIKELFSKDAINAETVLVLVNAVYFKAKWETYFDHENTVDAPFCLNANENKSVKMMTQKGLYRIGFIEEVKAQILEMRYTKGKLSMFVLLPSHSKDNLKGLEELERKITYEKMVAWSSSENMSEESVVLSFPRFTLEDSYDLNSILQDMGITDIFDETRADLTGISPSPNLYLSKIIHKTFVEVDENGTQAAAATGAVVSERSLRSWVEFNANHPFLFFIRHNKTQTILFYGRVCSP
- Semi-quantitative analysis of proteins binding to different plaque particles: Synuclein [1]: 0
- Semi-quantitative analysis of proteins binding to different plaque particles: Tau [2]: 0
- Semi-quantitative analysis of proteins binding to different plaque particles: Abeta-42 [3]: 2
- Semi-quantitative analysis of proteins binding to different plaque particles: Chl small [4]: 0
- Semi-quantitative analysis of proteins binding to different plaque particles: Chl Large [5]: 0

B2: Selenoprotein P (protein)
chain: ESQDQSSLCKQPPAWSIRDQDPMLNSNGSVTVVALLQASUYLCILQASKLEDLRVKLKKEGYSNISYIVVNHQGISSRLKYTHLKNKVSEHIPVYQQEENQTDVWTLLNGSKDDFLIYDRCGRLVYHLGLPFSFLTFPYVEEAIKIAYCEKKCGNCSLTTLKDEDFCKRVSLATVDKTVETPSPHYHHEHHHNHGHQHLGSSELSENQQPGAPNAPTHPAPPGLHHHHKHKGQHRQGHPENRDMPASEDLQDLQKKLCRKRCINQLLCKLPTDSELAPRSUCCHCRHLIFEKTGSAITUQCKENLPSLCSUQGLRAEENITESCQURLPPAAUQISQQLIPTEASASURUKNQAKKUEUPSN
- Semi-quantitative analysis of proteins binding to different plaque particles: Synuclein [1]: 1
- Semi-quantitative analysis of proteins binding to different plaque particles: Tau [2]: 0
- Semi-quantitative analysis of proteins binding to different plaque particles: Abeta-42 [3]: 0
- Semi-quantitative analysis of proteins binding to different plaque particles: Chl small [4]: 0
- Semi-quantitative analysis of proteins binding to different plaque particles: Chl Large [5]: 0

B3: Isoform 2 of RNA-binding protein 39 (protein)
chain: ADDIDIEAMLEAPYKKDENKLSSANGHEERSKKRKKSKSRSRSHERKRSKSKERKRSRDRERKKSKSRERKRSRSKERRRSRSRSRDRRFRGRYRSPYSGPKFNSAIRGKIGLPHSIKLSRRRSRSKSPFRKDKSPVREPIDNLTPEERDARTVFCMQLAARIRPRDLEEFFSTVGKVRDVRMISDRNSRRSKGIAYVEFVDVSSVPLAIGLTGQRVLGVPIIVQASQAEKNRAAAMANNLQKGSAGPMRLYVGSLHFNITEDMLRGIFEPFGRIESIQLMMDSETGRSKGYGFITFSDSECAKKALEQLNGFELAGRPMKVGHVTERTDASSASSFLDSDELERTGIDLGTTGRLQLMARLAEGTGLQIPPAAQQALQMSGSLAFGAVADLQTRLSQQTEASALAAAASVQPLATQCFQLSNMFNPQTEEEVGWDTEIKDDVIEECNKHGGVIHIYVDKNSAQGNVYVKCPSIAAAIAAVNALHGRWFAGKMITAAYVPLPTYHNLFPDSMTATQLLVPSRR
- Semi-quantitative analysis of proteins binding to different plaque particles: Synuclein [1]: 0
- Semi-quantitative analysis of proteins binding to different plaque particles: Tau [2]: 0
- Semi-quantitative analysis of proteins binding to different plaque particles: Abeta-42 [3]: 2
- Semi-quantitative analysis of proteins binding to different plaque particles: Chl small [4]: 0
- Semi-quantitative analysis of proteins binding to different plaque particles: Chl Large [5]: 0

B4: Dermcidin (protein)
chain: YDPEAASAPGSGNPCHEASAAQKENAGEDPGLARQAPKPRKQRSSLLEKGLDGAKKAVGGLGKLGKDAVEDLESVGKGAVHDVKDVLDSVL
- Semi-quantitative analysis of proteins binding to different plaque particles: Synuclein [1]: 0
- Semi-quantitative analysis of proteins binding to different plaque particles: Tau [2]: 0
- Semi-quantitative analysis of proteins binding to different plaque particles: Abeta-42 [3]: 2
- Semi-quantitative analysis of proteins binding to different plaque particles: Chl small [4]: 0
- Semi-quantitative analysis of proteins binding to different plaque particles: Chl Large [5]: 0

B5: Carboxypeptidase N catalytic chain (protein)
chain: VTFRHHRYDDLVRTLYKVQNECPGITRVYSIGRSVEGRHLYVLEFSDHPGIHEPLEPEVKYVGNMHGNEALGRELMLQLSEFLCEEFRNRNQRIVQLIQDTRIHILPSMNPDGYEVAAAQGPNKPGYLVGRNNANGVDLNRNFPDLNTYIYYNEKYGGPNHHLPLPDNWKSQVEPETRAVIRWMHSFNFVLSANLHGGAVVANYPYDKSFEHRVRGVRRTASTPTPDDKLFQKLAKVYSYAHGWMFQGWNCGDYFPDGITNGASWYSLSKGMQDFNYLHTNCFEITLELSCDKFPPEEELQREWLGNREALIQFLEQVHQGIKGMVLDENYNNLANAVISVSGINHDVTSGDHGDYFRLLLPGIYTVSATAPGYDPETVTVTVGPAEPTLVNFHLKRSIPQVSPVRRAPSRRHGVRAKVQPQARKKEMEMRQLQRGPA
- Semi-quantitative analysis of proteins binding to different plaque particles: Synuclein [1]: 0
- Semi-quantitative analysis of proteins binding to different plaque particles: Tau [2]: 1
- Semi-quantitative analysis of proteins binding to different plaque particles: Abeta-42 [3]: 0
- Semi-quantitative analysis of proteins binding to different plaque particles: Chl small [4]: 0
- Semi-quantitative analysis of proteins binding to different plaque particles: Chl Large [5]: 0

B6: Catalase (protein)
chain: ADSRDPASDQMQHWKEQRAAQKADVLTTGAGNPVGDKLNVITVGPRGPLLVQDVVFTDEMAHFDRERIPERVVHAKGAGAFGYFEVTHDITKYSKAKVFEHIGKKTPIAVRFSTVAGESGSADTVRDPRGFAVKFYTEDGNWDLVGNNTPIFFIRDPILFPSFIHSQKRNPQTHLKDPDMVWDFWSLRPESLHQVSFLFSDRGIPDGHRHMNGYGSHTFKLVNANGEAVYCKFHYKTDQGIKNLSVEDAARLSQEDPDYGIRDLFNAIATGKYPSWTFYIQVMTFNQAETFPFNPFDLTKVWPHKDYPLIPVGKLVLNRNPVNYFAEVEQIAFDPSNMPPGIEASPDKMLQGRLFAYPDTHRHRLGPNYLHIPVNCPYRARVANYQRDGPMCMQDNQGGAPNYYPNSFGAPEQQPSALEHSIQYSGEVRRFNTANDDNVTQVRAFYVNVLNEEQRKRLCENIAGHLKDAQIFIQKKAVKNFTEVHPDYGSHIQALLDKYNAEKPKNAIHTFVQSGSHLAAREKANL
- Semi-quantitative analysis of proteins binding to different plaque particles: Synuclein [1]: 0
- Semi-quantitative analysis of proteins binding to different plaque particles: Tau [2]: 0
- Semi-quantitative analysis of proteins binding to different plaque particles: Abeta-42 [3]: 12
- Semi-quantitative analysis of proteins binding to different plaque particles: Chl small [4]: 0
- Semi-quantitative analysis of proteins binding to different plaque particles: Chl Large [5]: 0

B7: Peroxiredoxin-1 (protein)
chain: SSGNAKIGHPAPNFKATAVMPDGQFKDISLSDYKGKYVVFFFYPLDFTFVCPTEIIAFSDRAEEFKKLNCQVIGASVDSHFCHLAWVNTPKKQGGLGPMNIPLVSDPKRTIAQDYGVLKADEGISFRGLFIIDDKGILRQITVNDLPVGRSVDETLRLVQAFQFTDKHGEVCPAGWKPGSDTIKPDVQKSKEYFSKQK
- Semi-quantitative analysis of proteins binding to different plaque particles: Synuclein [1]: 0
- Semi-quantitative analysis of proteins binding to different plaque particles: Tau [2]: 0
- Semi-quantitative analysis of proteins binding to different plaque particles: Abeta-42 [3]: 5
- Semi-quantitative analysis of proteins binding to different plaque particles: Chl small [4]: 0
- Semi-quantitative analysis of proteins binding to different plaque particles: Chl Large [5]: 0

B8: Isoform 2 of Nucleophosmin (protein)
chain: MEDSMDMDMSPLRPQNYLFGCELKADKDYHFKVDNDENEHQLSLRTVSLGAGAKDELHIVEAEAMNYEGSPIKVTLATLKMSVQPTVSLGGFEITPPVVLRLKCGSGPVHISGQHLVAVEEDAESEDEEEEDVKLLSISGKRSAPGGGSKVPQKKVKLAADEDDDDDDEEDDDEDDDDDDFDDEEAEEKAPVKKGQESFKKQEKTPKTPKGPSSVEDIKAKMQASIEKGGSLPKVEAKFINYVKNCFRMTDQEAIQDLWQWRKSL
- Semi-quantitative analysis of proteins binding to different plaque particles: Synuclein [1]: 0
- Semi-quantitative analysis of proteins binding to different plaque particles: Tau [2]: 0
- Semi-quantitative analysis of proteins binding to different plaque particles: Abeta-42 [3]: 4
- Semi-quantitative analysis of proteins binding to different plaque particles: Chl small [4]: 0
- Semi-quantitative analysis of proteins binding to different plaque particles: Chl Large [5]: 0

B9: Guanine deaminase (protein)
chain: MCAAQMPPLAHIFRGTFVHSTWTCPMEVLRDHLLGVSDSGKIVFLEEASQQEKLAKEWCFKPCEIRELSHHEFFMPGLVDTHIHASQYSFAGSSIDLPLLEWLTKYTFPAEHRFQNIDFAEEVYTRVVRRTLKNGTTTACYFATIHTDSSLLLADITDKFGQRAFVGKVCMDLNDTFPEYKETTEESIKETERFVSEMLQKNYSRVKPIVTPRFSLSCSETLMGELGNIAKTRDLHIQSHISENRDEVEAVKNLYPSYKNYTSVYDKNNLLTNKTVMAHGCYLSAEELNVFHERGASIAHCPNSNLSLSSGFLNVLEVLKHEVKIGLGTDVAGGYSYSMLDAIRRAVMVSNILLINKVNEKSLTLKEVFRLATLGGSQALGLDGEIGNFEVGKEFDAILINPKASDSPIDLFYGDFFGDISEAVIQKFLYLGDDRNIEEVYVGGKQVVPFSSSVKETIHLPASSPHPPPFP
- Semi-quantitative analysis of proteins binding to different plaque particles: Synuclein [1]: 0
- Semi-quantitative analysis of proteins binding to different plaque particles: Tau [2]: 0
- Semi-quantitative analysis of proteins binding to different plaque particles: Abeta-42 [3]: 5
- Semi-quantitative analysis of proteins binding to different plaque particles: Chl small [4]: 0
- Semi-quantitative analysis of proteins binding to different plaque particles: Chl Large [5]: 0
